Source: article PMC2889767

T1: Rfx3 (in vitro translated) (UniProt P48381 1-749)
T1 sequence: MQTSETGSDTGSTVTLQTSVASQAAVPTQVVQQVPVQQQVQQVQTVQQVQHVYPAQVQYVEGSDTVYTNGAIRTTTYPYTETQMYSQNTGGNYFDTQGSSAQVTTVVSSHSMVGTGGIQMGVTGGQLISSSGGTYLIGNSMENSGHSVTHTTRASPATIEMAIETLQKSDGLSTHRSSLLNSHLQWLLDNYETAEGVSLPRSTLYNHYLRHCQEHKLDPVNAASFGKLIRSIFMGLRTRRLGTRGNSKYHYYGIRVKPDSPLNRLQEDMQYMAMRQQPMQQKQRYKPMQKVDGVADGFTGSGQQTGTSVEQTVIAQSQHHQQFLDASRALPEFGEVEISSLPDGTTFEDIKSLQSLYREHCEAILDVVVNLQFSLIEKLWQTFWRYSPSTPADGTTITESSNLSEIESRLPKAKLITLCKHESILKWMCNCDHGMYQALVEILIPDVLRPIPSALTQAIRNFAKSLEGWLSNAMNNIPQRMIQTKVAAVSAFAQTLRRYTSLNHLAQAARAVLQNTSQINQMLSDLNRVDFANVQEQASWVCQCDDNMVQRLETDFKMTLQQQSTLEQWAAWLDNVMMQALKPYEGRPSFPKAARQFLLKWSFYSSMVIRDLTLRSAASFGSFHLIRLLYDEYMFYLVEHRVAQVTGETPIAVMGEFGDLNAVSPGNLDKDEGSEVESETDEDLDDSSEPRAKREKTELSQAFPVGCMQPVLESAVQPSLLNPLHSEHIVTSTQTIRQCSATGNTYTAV

B1: Pal-1 wild type (dsDNA)
DNA 1: GGGAGTGGTCACCATGGTGACAGGAG
DNA 2: GGCTCCTGTCACCATGGTGACCACTC
B2: Pal-2 wild type (dsDNA)
DNA 1: GGCAATGGTCACCATAGAAACCACAG
DNA 2: GGCTGTGGTTTCTATGGTGACCATTG

Molecular target: T1, Rfx3 (in vitro translated)
Assay: EMSA

Binder	binding result
B1	binds
B2	binds
